{"source": "patent US20170247465A1", "about": "“COMBINATION THERAPY FOR TREATMENT OF CANCER” (OncoMed Pharmaceuticals, Inc., priority 2014, published 2017)", "molecules": {"B1": {"name": "OMP-18R5: anti-FZD antibody, IgG2, also known as vantictumab; heavy chain SEQ ID NO:3, light chain SEQ ID NO:4 (antibody)", "heavy": "EVQLVESGGGLVQPGGSLRLSCAASGFTFSHYTLSWVRQAPGKGLEWVSVISGDGSYTYYADSVKGRFTISSDNSKNTLYLQMNSLRAEDTAVYYCARNFIKYVFANWGQGTLVTVSSASTKGPSVFPLAPCSRSTSESTAALGCLVKDYFPEPVTVSWNSGALTSGVHTFPAVLQSSGLYSLSSVVTVPSSNFGTQTYTCNVDHKPSNTKVDKTVERKCCVECPPCPAPPVAGPSVFLFPPKPKDTLMISRTPEVTCVVVDVSHEDPEVQFNWYVDGVEVHNAKTKPREEQFNSTFRVVSVLTVVHQDWLNGKEYKCKVSNKGLPAPIEKTISKTKGQPREPQVYTLPPSREEMTKNQVSLTCLVKGFYPSDIAVEWESNGQPENNYKTTPPMLDSDGSFFLYSKLTVDKSRWQQGNVFSCSVMHEALHNHYTQKSLSLSPGK", "light": "DIELTQPPSVSVAPGQTARISCSGDNIGSFYVHWYQQKPGQAPVLVIYDKSNRPSGIPERFSGSNSGNTATLTISGTQAEDEADYYCQSYANTLSLVFGGGTKLTVLGQPKAAPSVTLFPPSSEELQANKATLVCLISDFYPGAVTVAWKADSSPVKAGVETTTPSKQSNNKYAASSYLSLTPEQWKSHRSYSCQVTHEGSTVEKTVAPTECS"}}, "format_in_all_cases": "in vivo, NOD/SCID mice", "key": {"[1]": {"test_system": "UM-PE13 breast tumor cells", "assay": "UM-PE13 breast tumor xenograft, staggered dosing of OMP-18R5 and paclitaxel (Example 2)", "method": "FIG. 2. Inhibition of breast tumor growth in vivo by a Wnt pathway inhibitor in combination with a taxane using a staggered dosing schedule. UM-PE13 breast tumor cells were injected subcutaneously into NOD/SCID mice. […] OMP-18R5 was administered at 25 mg/kg and paclitaxel at 20 mg/kg. Agents were administered every three weeks and administered intraperitoneally. Data is shown as tumor volume (mm^3) over days post treatment.\nSingle cell suspensions of xenograft UM-PE13 breast tumor cells (20,000 cells) were injected subcutaneously into 6-8 week old NOD/SCID mice. UM-PE13 is a triple negative breast cancer. Tumors were allowed to grow 34 days until they reached an average volume of 80 mm^3. The mice were randomized (n=8 per group) and treated with paclitaxel, a combination of OMP-18R5 and paclitaxel administered on the same day, a combination of OMP-18R5 and paclitaxel where the paclitaxel was administered 3 days prior to OMP-18R5, a combination of OMP-18R5 and paclitaxel where OMP-18R5 was administered 3 days prior to the paclitaxel, or a control antibody. Mice were treated once every three weeks with OMP-18R5 at a dose of 25 mg/kg and paclitaxel at a dose of 20 mg/kg. OMP-18R5 and paclitaxel were administered intraperitoneally. Tumor growth was monitored and tumor volumes were measured with electronic calipers at the indicated time points. Data are expressed as mean±S.E.M."}, "[2]": {"test_system": "OMP-B90 breast tumor cells", "assay": "OMP-B90 breast tumor xenograft, staggered dosing of Wnt inhibitors and paclitaxel (Example 9)", "conditions": "Wnt pathway inhibitor 25 mg/kg every two weeks, administered 2 days prior to paclitaxel 10 mg/kg once a week, i.p., FIG. 7", "method": "FIG. 7A-7B. Inhibition of breast tumor growth in vivo by a Wnt pathway inhibitor in combination with a taxane using a staggered dosing schedule. FIG. 7A. OMP-B90 breast tumor cells were injected subcutaneously into NOD/SCID mice. Mice were treated with control antibody (-•-), paclitaxel (-▴-), a combination of OMP-18R5 and paclitaxel, where OMP-18R5 was administered on the same day as paclitaxel (-□-), or a combination of OMP-18R5 and paclitaxel, where OMP-18R5 was administered 2 days prior to administration of paclitaxel (-⋄-). FIG. 7B. OMP-B90 breast tumor cells were injected subcutaneously into NOD/SCID mice. Mice were treated with control antibody (-•-), OMP-54F28 (-▪-), paclitaxel (-▴-), a combination of OMP-54F28 and paclitaxel, where OMP-54F28 was administered on the same day as paclitaxel (-□-), or a combination of OMP-54F28 and paclitaxel, where OMP-54F28 was administered 2 days prior to administration of paclitaxel (-⋄-). OMP-18R5, OMP-54F28 and control antibody were administered at 25 mg/kg and paclitaxel was administered at 10 mg/kg. […]\n(§1) Single cell suspensions of xenograft OMP-B90 breast tumor cells were injected subcutaneously into 6-8 week old NOD/SCID mice. […] Tumor growth was monitored and tumor volumes were measured with electronic calipers at the indicated time points. Data are expressed as mean±S.E.M."}, "[3]": {"test_system": "OMP-OV40 ovarian tumor cells", "assay": "OMP-OV40 ovarian tumor xenograft, staggered dosing of Wnt inhibitors and paclitaxel (Example 11)", "conditions": "Wnt pathway inhibitor 25 mg/kg administered 2 days prior to paclitaxel 20 mg/kg, every two weeks i.p.; versus single agents; FIG. 9", "method": "FIG. 9A-9B. Inhibition of ovarian tumor growth in vivo by a Wnt pathway inhibitor in combination with a taxane using a staggered dosing schedule. FIG. 9A. OMP-OV40 ovarian tumor cells were injected subcutaneously into NOD/SCID mice. Mice were treated with control antibody (-•-), OMP-18R5 (-▴-), paclitaxel (-▪-), or a combination of OMP-18R5 and paclitaxel, where OMP-18R5 was administered 2 days prior to administration of paclitaxel (-⋄-). […]. OMP-OV40 ovarian tumor cells were injected subcutaneously into NOD/SCID mice. Mice were treated with control antibody (-•-), OMP-54F28 (-▴-), paclitaxel (-▪-), or a combination of OMP-54F28 and paclitaxel, where OMP-54F28 was administered 2 days prior to administration of paclitaxel (-⋄-). OMP-18R5, OMP-54F28 and control antibody were administered at 25 mg/kg and paclitaxel was administered at 20 mg/kg. Agents were administered once every two weeks and administered intraperitoneally. Data is shown as tumor volume (mm^3) over days post treatment.\nas §1, with “OMP-OV40 ovarian” for “OMP-B90 breast”, “mice. Tumors were allowed to grow until they reached an average volume of approximately 128 mm^3.” for “mice.”"}}, "note": "Entries after “also recorded” stand apart in the source; their conditions may differ."}
{"molecule": "B1", "values": [{"measurement": "inhibition of tumor growth (tumor volume)", "setting": "[1]; OMP-18R5 25 mg/kg administered 3 days prior to paclitaxel 20 mg/kg, every three weeks i.p., versus same day, paclitaxel first, paclitaxel alone, FIG. 2", "value": "significantly better at inhibiting tumor growth of the UM-PE13 breast tumor cells than any of the other dosing regimens"}, {"measurement": "tumor regression in individual mice", "setting": "[1]; Wnt pathway inhibitor (OMP-18R5) administered before the taxane (paclitaxel)", "value": "tumors in several of the individual mice regressed to undetectable levels"}, {"measurement": "regression of established tumors", "setting": "[2]", "value": "induced a regression of the established breast tumors"}, {"measurement": "inhibition of tumor growth (tumor volume)", "setting": "[2]; versus other dosing regimens", "value": "significantly better at inhibiting tumor growth of the OMP-B90 breast tumor cells than any of the other dosing regimens"}, {"measurement": "inhibition of tumor growth (tumor volume)", "setting": "[3]", "value": "inhibited tumor growth of the OMP-OV40 ovarian tumor cells to a greater extent than either the Wnt pathway inhibitors or paclitaxel alone; also recorded: inhibited tumor growth"}]}
